Test results from publication PMC4771075.

Biological target: Dyn A(1-11)NH2 (Rattus norvegicus)
Assay: radioligand

Ki: 2.6 nM
B1: KOR, P34975 (protein)
chain: MESPIQIFRGEPGPTCAPSACLLPNSSSWFPNWAESDSNGSVGSEDQQLEPAHISPAIPVIITAVYSVVFVVGLVGNSLVMFVIIRYTKMKTATNIYIFNLALADALVTTTMPFQSAVYLMNSWPFGDVLCKIVISIDYYNMFTSIFTLTMMSVDRYIAVCHPVKALDFRTPLKAKIINICIWLLASSVGISAIVLGGTKVREDVDVIECSLQFPDDEYSWWDLFMKICVFVFAFVIPVLIIIVCYTLMILRLKSVRLLSGSREKDRNLRRITKLVLVVVAVFIICWTPIHIFILVEALGSTSHSTAVLSSYYFCIALGYTNSSLNPVLYAFLDENFKRCFRDFCFPIKMRMERQSTNRVRNTVQDPASMRDVGGMNKPV
